Test: soluble fraction after stress (log2 fold change); higher = more stays soluble; pooled small domains, quantitative proteomics
Details: stress: 75 degC
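Further: 20 min heating vs room temperature control held 20 min.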

Sequence | soluble fraction (log2)
HMGTVQSVDRALLLLSEIGREPGGLVDLSTRVRLATSTTGRILATLEHAGAVVRGDDGIYHIGPLVHGMVS | -2.04
HMHLPDNAVSIISELKMTPEEVLELIGKLPHDFLFLPYSQRKKIIVDLIPNKDYKLLMSLIKKFML | -1.62
HMVSKTEAMAVFIADKLQEGMVPANEILELYKGMQLSDRTIRNAKKQLGIVSIRKDGQWYWSL | -1.05
HMAAQDLIVKTDASQVEARVLEISPDAVRYKRFSNPDGPTYVLPVAEIRYIRYANGEVEYYA | -0.624
HMGTGELLVHVIGAVHSPGVVRLPTGARVVDAIDAAGGAREDAQTEQLNLARLVDDGEQVRVPVVGESVD | 0.081
HMRDSYEVEGRIASVSPAAGTFVVAGVTVDYTGARFVGGTVAQLAPGVKVEVEGRRLANGTLQAREIEFD | -0.142
HMGTSFEDIDRAVKSVRKPETDEAEKLHAGKTFKDIAETELFQKLTESFAGISDRVNEVIDLYTARAAE | 0.188
HMLMKILTDALEKMSPEELKELAEATGVKNTSSITPETMVGVFQAVFRVGGFKSYQLTLIIVNAVLKA | -0.148
HMKHTVSVDRLQPGVFVSLGGLSWLDHPFLLNRFRLTDHDQIKVLRSLGVKEIEWDPTRSTAQPLPE | -1.04
HMSDRLRLGRRIRAARLEQNLSQAALAERLGISASYLNLLEHDRRSLTTVLLLKLAQVLGLELRDLAAG | -2.49
HMGEVEVPDLVGIEAIQAKTLLFNSDFLIKEFYDYDPTQPIGVVIRQAPEAGTTQTIGDSVTITINRA | -0.334
HMDQVLHQLVEVLRRSEIRISPAETLDAFKVLRNVGIDNKSLLREALALTLAKSIHEKIIFYETFDEFFT | -1.46
HMKLTALWTANPKISAPIYSEPSTQSKTLGRIYQGASVKVYSFDPEWAYINSSGVVGYVLRRHLE | -2.43
HMSSDKVWSFEASGKQLQASYVAFENETVYLRASEDGSLLQFPLTDFGMKDQLVVLELYELSAKINRSN | -0.934
HMEKKTILIPPVITVRALAEISQIPVNRLLQELIKNGVFTSINEKIDFDTAVIIGADLNLDIQLL | -1.86
HMTVGEKIQYYRKKIGLSQEELGQKMLLSRQTISLWEMDKTLPTVDNLLRLKEIFSVSIDELLSENEPK | -1.31
HMDYNSYGLTERELELVDYVLKGYSRKEMAEASGLKVNTIGSYMKKIYRKLNIHNRTELKERFI | -0.119
HMESYTEEMLEKMSVSKLRTIARELQVDNMTREQIRFGKKTELIQNILEFTGREIENMQLYDK | -0.0481
HMSESIFTLYGDEKFEKIRYYLKERGFITLDALARFDFDELLFVPGVSELLISEAKQLFSRYDTSSLAAKE | -0.584
HMTAPELGIRQDGNTLVIFWPSSVTGYVLKSADAVDTPPASWTSVTHTTVGDEHRAEITPTGNSRFFRLV | -0.156
HMTSVRVPVKKEIWFWAIKESQRDLNEILARFPKMDKWINQEENPTFNQLEKVAKFLRVPFGYMFLDKPPK | -1.86
HMENMSFGTKLYTWLYGKLVGSDEIGNKYYTNINDPSDLNAKRWVIFNGEIEASKIPPHWHAWLHKSIDK | -0.918
HMEPLIRTLEEQIAEKIKNYRKGTRVYDAEHVDRWISQLPEEERMVVLTETNRLLEQNYVDQAKLME | -0.0452
HMKEKLGEFENVFLSVDELQKLKSKLGAETESYIERLSNYIASSGKKYKSHYATILSWTQKDTK | -0.88
HMHDLGEQIIEKLRASGGISTLTDKSDPDAIYRQFKVSKKKYKQALGTLYKSRRITLAPNQIKLA | -0.293
HMKISIPQEYFEIYNVLKQRPMHINEISKILKKPVSEISGTISLMEIEGYITKLTTDQYVLKKI | -0.473

Sequence | soluble fraction (log2)
HMSFGWESLENKEGVADTDLHPSGWVRIEDSRIFVVSEGDFINKGSKVTVLTVDGNRVVVRELI | -2.1
HMNRREFQFSEGSSNKFWSIELRDQSFIVHYGKIGTNGQAQEKTFATADAAKKEHDKLIAEKTKKGYVEVQ | -0.34
HMTIPNGTVVNGTVLEAREAGAYLVRVAGQTLTAQANLPLLVGQHFRAVWDSSGDIPVLRLSDAEQALLGK | -0.362
HMNLTLMDALKAAGLPVDGINLSMVNKMMEEQMPIDKTSLNQMYQLVQDNKDINVTTLVELKRLG | 0.0398
HMGAYIPSYAPVDINAATHTVVRGDTVYNISKRYHVSQEDFRAWNGMADNTLSIGQVVKVKPAGYTAPK | -0.267
HMEGPALKVWKARYLRAAILEQLLSDRWDDRGGQPIRVVVNEPTNSLLIRIPRHLWPEAEKLLQELDQR | -2.34
HMAVFSKKQIFDTAFALFESKGLEAITARNLGKALSSSPAPIYAHYSSITELKNELISVAKDR | -3.06
HMENNIRLSVPDTESGQRIDSYLAEQIPGLTRSAVQNLLAEQAVTIAGKAVKKNYKLLGGEDILVQLPEVR | 0.217
HMGLKWVYYTNIEPDGNKINNQKLYDILKQKFVYPVIISRDELDSMELKDLTYDSYIDVEGRYFKPYNLD | -2.04
HMKPSKTVYTTANLNLRNGASMSAAVYTSVSRGTALATTGRTTSGWTQITHRGRTLWASSKYLTTTTPP | -3.17
HMPPGQIVNEALQRAGNSTPTGTAISAQDDIKLYTSALAELATQGDTSSASVAKLREALQTAQVAFYNAV | 0.201
HMTTIAQNISNYRTRANMTQQQVADKLSVSHHTVSKWELGINTPSVEDMQKLAQVFGVTITELVVD | -0.652
HMGISVEVPDLKNMSVAEAGSLLKNSGLSYAVVDSDYVKTISPGKILDQNPGRGLRVKKGRIVYLTINSL | -1.69
HMYKSSRASKSEVNKFLKFIIQSLDKRGFLQPGHKRQSMIRNIENIFYRTNLSDQEIRILLGIFSTLNK | -0.9
HMTLDEDYFYYTLKAKEGYYRLYKKLGVDRKIIDSLNPNLKEMGLQVGMVIRVPKSQTSDLSVKNSLLVE | -1.64
HMPELTERELEVLLLTARGLPSSEAARLLFITRRTVAAHLTSIYGKLGARNKTEAVLAALKRGIIMLDQIG | -3.99
HMTDVRFIDIPVTEHHPWNGMKVRDLQLPPGTLLVFLSHPGEKNTVPHGETVLRSGDVLVLGATAYTGQ | -0.753
HMIEDMQQYIKEIRQMVSGRLDMTRNLEDEEIRDTIAELVAEESRKQYMTLTEKREVIEGVFNSMR | -0.0831
HMKKHALFTLFKHHNANGTTVWYARFWDDATQRYAIARSTGVLAQGKRERHDEAITVAREMASSIQFS | -2.81
HMNKYNNIEDLKEEDFENISEKYQVPVSFVKSKLDDLINWHEKNPQKNHYKNYLSALRDWVKRDSLKIKL | -0.132
HMTIGIGKSLDFNTSGEKAYRIYNFKGAYVGTFKASDMTSLKNEVQKSNVKAGAYMVRSLDGHVNRLIEIK | -1.49
HMGGGRELGLDPETGKKISVRLGKFGPFVQLGESGEEDKPVFANLGKNQSIATLSLEEAIALLARPK | 0.187
HMAQFNELLFELRQDRKMTQEDLAKVLFVTSGTISNYENGVHLPDIEKLISLADFFGVTTDYLLG | -0.189
HMQTQVEVLVKYVLEDGTVYKEDKVSADIGAILDSGDLPMLSNDMKFIDDFLFYEVKESDNVIERKVAKLV | -0.782
HMSFNISPTKKLILELIMNGTAAVEAIAVKAGISKGMAYNHLRELRSMGYITDEGGYKITDSGRLAV | -2.39
HMTDPVLYEERDDIAIITINRPEKKNTLTDAVIQGIADGIDAATKSADVVAVVLRGAGDTLTAGYDLTA | 0.213

Sequence | soluble fraction (log2)
HMQNWFADPKFEMFEDYGDAQSFYDTETKNIYVVMAEYGQKGSNTIQEITPDSEEYIPNYEKYKEYMENK | 0.214
HMNVEATAETLLALLKKNGGSLPFGDKSDPEAIQSQLKMSKKTFKKAAGTLFKKKLVRIEDHGIFL | -2.02
HMVSTEDEISDKLLLDFALEKLSENEKQIVKLRYYNSLTQSKTAEILNMTQVQVSRSEKKILAKLRGII | -0.0838
HMRGYGDRIRILRERAGITIEQLAERLGVAPYFIRRTELSEVYPTKPYIEALADVLNIDASYLARHI | -2.46
HMELNKNDLKIIKNISHIYPYFTPVKILQLILSKKFKTIDYNKILKSTSILTTDRSHLYYILNN | 0.0816
HMKPLAQQVNDYLAATRTSIATLANEIPGYSRPTISRYLAGKYDGDITTIEKLLAEWLAQRTG | -0.832
HMFIVTDQMQRVLDYITEKEKATNNDLEELLGVKSTRIYTITRKLIQHNLIIPVGKGKNKYYIL | -0.902
HMAAQDIILKRNAEQIEAIVKEITDTDVKYRKFTNTEGVTYSIRRSEVFSITYENGTMDLFA | 0.248
HMAHKYYSIMRPVSIGTFPDNGTILGIVNFDTRQMVESIGKMAWGYINYGKPLTEKQISDYELVAE | -1.4
HMPPITIVPNDNGVPIIRSQTPEISTAVNVELKAAGINTHTIDGTSIRVPKAQAQVAQQIVSRVNTRFT | 0.151
HMNSVKSPMPGTILGLKVSVGDTVKVGDELLVLESMKMENMINSPIDGTVSKILISEGDSVQHGQELII | 0.238
HMGPLSDRSVADWLLRLGLADTANNRLLLQVMHAAGLPLERTAVRAMRETAAGRPEGTDAREWLQAAAAAQ | -0.571
HMGVLSPRQSQILALVAQGLGNREIAERLHIAPTTARDHVQAIMRRLNVNSRAAAAVMGVKLGLI | -1.92
HMLISYRVDALANEAGLSVDTIRYYQKLGILDPPKRTGRHSEYSPDHLERLIEIRRLADAGLTLSQISEI | -2.55
HMLELTGEEEFVIRTLTRQGDLHINALVVETDIPINRMISLLFELEMKGVVKALVGGVYHLLG | -2.45
HMNGDWISARQEYYIRGLWDLASRAKDEASLQAMLQRIAGVTQIEWISKEKATKVILALRDIAKK | -1.6
HMEILVSTRRHEIASLLSRKKRVSFFELFPEKTKEYVVATFLAILEMAKAREVNITQEDTFDEIIVEEA | -2.18
HMFDDEELDTFAGRQSDSYDQQEVEQFSDVLHTMRQDEVQAWWRSLTLRGISLPDELKDEVIML | -0.481
HMETADREILLREIREIINERVDYNKDITDDEMKELVMNTVFERSRQQYMSIQDKQEIIQAIFNSMR | 0.029
HMGDGAWQQGEGGRWWYKYNNGTYPKDRVVTIGGKKYGFDSEGWMLSDTTKAFGGTTYSFAADGVATAQA | -0.0039
HMLNENNHGEWSIRMSNGLVVRLGRDELNRSLRRSIMAYAGLAPNYRSSIEYIDARYLGGVALKTF | -0.159
HMKEINFTIEESAKGRLDKVIAENVADLTRSQVQSLIKKGQILVNDAPTTNRYQVKPNDQVIIKLPDPV | 0.396
HMNQKVRQLLSQAQAEMERKNYKQAIKLLDQALAIEPHSGELHFMKGYAWMSMGEFEKALESLYEARNYA | -1.4
HMRSFGTVAQARGRWKAFYVGPDKRRHTPGVTFSNPIRAQGWLAQELTLIELGQWTPPAQRREKAEVAS | -2.26
